# B1: murine TdT (Mus musculus) (protein)
# chain: MDPLQAVHLGPRKKRPRQLGTPVASTPYDIRFRDLVLFILEKKMGTTRRAFLMELARRKGFRVENELSDSVTHIVAENNSGSDVLEWLQLQNIKASSELELLDISWLIECMGAGKPVEMMGRHQLVVNRNSSPSPVPGSQNVPAPAVKKISQYACQRRTTLNNYNQLFTDALDILAENDELRENEGSCLAFMRASSVLKSLPFPITSMKDTEGIPCLGDKVKSIIEGIIEDGESSEAKAVLNDERYKSFKLFTSVFGVGLKTAEKWFRMGFRTLSKIQSDKSLRFTQMQKAGFLYYEDLVSCVNRPEAEAVSMLVKEAVVTFLPDALVTMTGGFRRGKMTGHDVDFLITSPEATEDEEQQLLHKVTDFWKQQGLLLYCDILESTFEKFKQPSRKVDALDHFQKCFLILKLDHGRVHSEKSGQQEGKGWKAIRVDLVMCPYDRRAFALLGWTGSRQFERDLRRYATHERKMMLDNHALYDRTKRVFLEAESEEEIFAHLGLDYIEPWERNA
# notes: recombinant, plasmid pET28a-murine TdT, E. coli BL21(DE3)
# Key:
# [1] = substrate: Nc1nc2c(ncn2[C@@H]2O[C@H](COP(=O)(O)OP(=O)(O)OP(=O)(O)O)[C@@H](O)[C@@H]2F)c(=O)[nH]1; test: steady-state primer extension, denaturing PAGE, Michaelis-Menten fit; type: biochemical, Mus musculus; settings: 100 nM ssDNA primer FAM-18G, 10 mM Mg(OAc)2, 1x TdT buffer (100 mM KCl, 30 mM Tris-acetate, 0.05% Triton X-100), pH 7.5, 37°C
# Description: (§1) steady-state primer extension, denaturing PAGE, Michaelis-Menten fit on murine TdT
# [2] = substrate: CO[C@@H]1[C@H](O)[C@@H](COP(=O)(O)OP(=O)(O)OP(=O)(O)O)O[C@H]1n1cnc2c(=O)[nH]c(N)nc21; test: as above; type: biochemical, Mus musculus; settings: 100 nM ssDNA primer FAM-18G, 10 mM Mg(OAc)2, 1x TdT buffer (100 mM KCl, 30 mM Tris-acetate, 0.05% Triton X-100), pH 7.5, 37°C
# Description: as §1
# [3] = substrate: O=c1ccn([C@@H]2O[C@H](COP(=O)(O)OP(=O)(O)OP(=O)(O)O)[C@@H](O)[C@H]2F)c(=O)[nH]1; test: as above; type: biochemical, Mus musculus; settings: 100 nM ssDNA primer FAM-18G, 10 mM Mg(OAc)2, 1x TdT buffer (100 mM KCl, 30 mM Tris-acetate, 0.05% Triton X-100), pH 7.5, 37°C
# Description: as §1
# [4] = substrate: Nc1ccn([C@@H]2O[C@H](COP(=O)(O)OP(=O)(O)OP(=O)(O)O)[C@@H](O)[C@@H]2F)c(=O)n1; test: as above; type: biochemical, Mus musculus; settings: 100 nM ssDNA primer FAM-18G, 10 mM Mg(OAc)2, 1x TdT buffer (100 mM KCl, 30 mM Tris-acetate, 0.05% Triton X-100), pH 7.5, 37°C
# Description: as §1
# [5] = substrate: Nc1ncnc2c1ncn2[C@H]1C[C@H](O)[C@@H](COP(=O)(O)OP(=O)(O)OP(=O)(O)O)O1; test: as above; type: biochemical, Mus musculus; settings: 100 nM ssDNA primer FAM-18G, 10 mM Mg(OAc)2, 1x TdT buffer (100 mM KCl, 30 mM Tris-acetate, 0.05% Triton X-100), pH 7.5, 37°C
# Description: as §1
# [6] = substrate: Cc1cn([C@H]2C[C@H](O)[C@@H](COP(=O)(O)OP(=O)(O)OP(=O)(O)O)O2)c(=O)[nH]c1=O; test: as above; type: biochemical, Mus musculus; settings: 100 nM ssDNA primer FAM-18G, 10 mM Mg(OAc)2, 1x TdT buffer (100 mM KCl, 30 mM Tris-acetate, 0.05% Triton X-100), pH 7.5, 37°C
# Description: as §1
# [7] = substrate: Nc1ccn([C@H]2C[C@H](O)[C@@H](COP(=O)(O)OP(=O)(O)OP(=O)(O)O)O2)c(=O)n1; test: as above; type: biochemical, Mus musculus; settings: 100 nM ssDNA primer FAM-18G, 10 mM Mg(OAc)2, 1x TdT buffer (100 mM KCl, 30 mM Tris-acetate, 0.05% Triton X-100), pH 7.5, 37°C
# Description: as §1
# [8] = substrate: Nc1nc2c(ncn2[C@@H]2O[C@H](COP(=O)(O)OP(=O)(O)OP(=O)(O)O)[C@@H](O)[C@H]2F)c(=O)[nH]1; test: as above; type: biochemical, Mus musculus; settings: 100 nM ssDNA primer FAM-18G, 10 mM Mg(OAc)2, 1x TdT buffer (100 mM KCl, 30 mM Tris-acetate, 0.05% Triton X-100), pH 7.5, 37°C
# Description: as §1
# [9] = substrate: CO[C@@H]1[C@H](O)[C@@H](COP(=O)(O)OP(=O)(O)OP(=O)(O)O)O[C@H]1n1ccc(N)nc1=O; test: purified protein, by the assay type
# Description: (§2) The steady-state kinetic experiments were performed as described previously with minor modifications ([61]). A 2× reaction solution was prepared by mixing 200 nM primer FAM-18G, 0–128 μM 2′-modified NTP and 20 mM Mg(OAc)2 in 2× TdT buffer. A 5 μl aliquot of pre-warmed 2× reaction solution was mixed with 5 μl of bovine TdT, MTdT-evo or murine TdT of varying concentration, and incubated at 37°C for a certain time. The reaction was then quenched by the addition of 10 μl of 2× TBE-urea sample buffer and incubation at 95°C for 10 min. The products were analysed with 20% denaturing PAGE gels containing 8 M urea. All gel bands were quantified using Quantity One analysis software (Bio-Rad). Km and kcat values were calculated by fitting the data to the Michaelis–Menten equation with GraphPad Prism 8 software. To quantify the activities of different TdTs for the incorporation of 2′-modified NTPs, steady-state kinetic experiments were carried out.
# [10] = substrate: Nc1ncnc2c1ncn2[C@@H]1O[C@H](COP(=O)(O)OP(=O)(O)OP(=O)(O)O)[C@@H](O)[C@H]1F; test: purified protein, by the assay type
# Description: as §2
# [11] = substrate: Nc1ncnc2c1ncn2[C@@H]1O[C@H](COP(=O)(O)OP(=O)(O)OP(=O)(O)O)[C@@H](O)[C@@H]1F; test: purified protein, by the assay type
# Description: as §2
# [12] = substrate: O=c1ccn([C@@H]2O[C@H](COP(=O)(O)OP(=O)(O)OP(=O)(O)O)[C@@H](O)[C@@H]2F)c(=O)[nH]1; test: purified protein, by the assay type
# Description: as §2
protein,measurement,setting,value
B1,Km,[1],2.75 ± 0.23 µM
same,kcat,[1],0.247 ± 0.007 s⁻¹
same,kcat/Km,[1],90000 M⁻¹ s⁻¹
same,Km,[2],1.97 ± 0.14 µM
same,kcat,[2],0.00217 ± 8.67e-05 s⁻¹
same,kcat/Km,[2],1100 M⁻¹ s⁻¹
same,Km,[3],0.95 ± 0.31 µM
same,kcat,[3],0.00617 ± 0.000567 s⁻¹
same,kcat/Km,[3],6480 M⁻¹ s⁻¹
same,Km,[4],1.66 ± 0.71 µM
same,kcat,[4],0.09 ± 0.00667 s⁻¹
same,kcat/Km,[4],54200 M⁻¹ s⁻¹
same,Km,[5],2.53 ± 0.30 µM
same,kcat,[5],0.0307 ± 0.00118 s⁻¹
same,kcat/Km,[5],12100 M⁻¹ s⁻¹
same,Km,[6],1.00 ± 0.33 µM
same,kcat,[6],0.0198 ± 0.00183 s⁻¹
same,kcat/Km,[6],19800 M⁻¹ s⁻¹
same,Km,[7],1.37 ± 0.18 µM
same,kcat,[7],0.058 ± 0.0055 s⁻¹
same,kcat/Km,[7],42300 M⁻¹ s⁻¹
same,Km,[8],2.59 ± 0.36 µM
same,kcat,[8],0.0892 ± 0.0055 s⁻¹
same,kcat/Km,[8],34500 M⁻¹ s⁻¹
same,Km,[9],5.1 ± 1.53 µM
same,kcat,[9],0.00112 ± 8.67e-05 s⁻¹
same,kcat/Km,[9],219 M⁻¹ s⁻¹
same,Km,[10],0.62 ± 0.48 µM
same,kcat,[10],0.023 ± 0.00108 s⁻¹
same,kcat/Km,[10],37200 M⁻¹ s⁻¹
same,Km,[11],3.98 ± 0.33 µM
same,kcat,[11],0.204 ± 0.00283 s⁻¹
same,kcat/Km,[11],51300 M⁻¹ s⁻¹
same,Km,[12],2.36 ± 0.60 µM
same,kcat,[12],0.06 ± 0.00433 s⁻¹
same,kcat/Km,[12],25500 M⁻¹ s⁻¹

# — PMC11417362, “Template-independent synthesis and 3′-end labelling of 2′-modified oligonucleotides with terminal deoxynucleotidyl transferases” (Nucleic Acids Research, 2024)
